Patent US8119572B2, “Methods for determining protein binding specificity using peptide libraries” (Wisconsin Alumni Research Foundation, priority 2005, dated 2012)
No end group written: not given here.

Biological target: T1, SIRT1 (Homo sapiens, UniProt Q96EB6)
T1 construct: made in house
T1 sequence (Q96EB6 1-747): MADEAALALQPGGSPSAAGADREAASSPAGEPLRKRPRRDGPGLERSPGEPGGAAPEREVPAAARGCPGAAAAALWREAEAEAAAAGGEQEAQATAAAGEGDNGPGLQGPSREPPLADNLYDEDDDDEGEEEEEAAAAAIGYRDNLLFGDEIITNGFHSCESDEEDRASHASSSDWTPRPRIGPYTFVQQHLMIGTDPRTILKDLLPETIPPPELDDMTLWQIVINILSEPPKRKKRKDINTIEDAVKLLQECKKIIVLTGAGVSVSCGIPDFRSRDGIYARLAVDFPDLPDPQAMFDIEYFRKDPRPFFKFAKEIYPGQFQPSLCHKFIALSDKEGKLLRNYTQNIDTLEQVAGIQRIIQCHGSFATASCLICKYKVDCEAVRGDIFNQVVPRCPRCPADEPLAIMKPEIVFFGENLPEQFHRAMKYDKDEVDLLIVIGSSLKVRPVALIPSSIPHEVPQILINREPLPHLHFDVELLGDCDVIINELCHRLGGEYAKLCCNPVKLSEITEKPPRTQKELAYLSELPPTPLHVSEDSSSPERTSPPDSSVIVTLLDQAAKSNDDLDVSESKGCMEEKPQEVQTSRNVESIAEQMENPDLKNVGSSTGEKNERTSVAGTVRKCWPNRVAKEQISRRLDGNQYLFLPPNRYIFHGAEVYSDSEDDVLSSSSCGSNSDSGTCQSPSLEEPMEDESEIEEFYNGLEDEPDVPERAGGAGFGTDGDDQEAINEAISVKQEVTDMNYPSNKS
Assay: Radioactive TLC-based [32P]-NAD+ in-solution kinetic analysis of resynthesized hits and non-hits
Assay type: biochemical
Details: for fold difference in catalytic activity in favor over WP(AcK)QQ: compared with WP(AcK)QQ, Table 3 values
Description: All solution phase Sir2 assays were carried out at 25° C. in 50 mM Tris.HCl. Reactions were done in 50-100 μL with 0.1-1.5 μM enzyme, 0.1-1.2 mM NAD^+, 0.5-1000 μM peptide and 1 mM DTT. Reaction mixtures were quenched with TFA to a final concentration of 1% after 5-10 min and nicotinamide levels were quantitated by HPLC at 264 nm.
Alternatively, [^32P]-NAD^+ (10 mCi/mL) was used in assays and quenched reaction mixtures were spotted on a silica TLC plate and run in a chamber containing 60% ethanol and 40 2.5 mM ammonium acetate for 3-4 hours. Levels of ^32P-OAADPr and ^32P-NAD^+ were then quantitated by phosphorimaging and the fraction turnover was calculated. Saturation curves were done at varying concentrations of peptide while holding that of NAD^+ constant. Time points were chosen such that product formation never exceeded 20% conversion and data were plotted as rate (s^−1) vs. peptide concentration. Plots were fitted to the Michaelis-Menten equation, v=[(kcat/Km)[S]]/(1+[S]/Km) using Kaleidagraph software (Reading, Pa.) to extract Km and kcat/Km.
To validate the results of the library screen, select hits and non-hits were resynthesized and subjected to in-solution kinetic analysis (Table 3). A radioactive TLC-based assay was employed with subsaturating levels of [^32P]-NAD^+ to determine the relative catalytic efficiencies (Jackson et al., 2003, J. Biol. Chem. 278: 50985-50998). In addition, two “consensus” peptides containing residues occurring with the highest and lowest frequency at each position, independent of context, were analyzed. For comparison, a 5-mer comprised of a sequence corresponding to a known site for p53 deacetylation by SIRT1 was assayed (Table 3).
In Table 3, efficiencies (^x=average) were obtained by fitting the data from [^32P]-NAD^+ assays to the modified Michaelis-Menten equation, v=[(kcat/Km)[S]]/(1+[S]/Km). […] Catalytic efficiencies of peptides containing the residues of the highest^b/lowest^c frequency at each position and the sequence relevant to p53 deacetylation in vivo^d are shown for comparison.

| Substance | catalytic activity, comparison of hits and non-hits in words (in-solution kinetic analysis) | fold difference in catalytic activity in favor over WP(AcK)QQ |
| --- | --- | --- |
| AY(AcK)EV (Ac-AYK(Ac)EV) [resynthesized select non-hit] | comparable to those of a few of the hits | – |
| QP(AcK)QI (Ac-QPK(Ac)QI) [resynthesized select hit of SIRT1 library screen] | – | 18 fold |
| WH(AcK)QQ (Ac-WHK(Ac)QQ) | – | seven |
